Activity (fold activation) and activity data for three molecules are collected here from patent US5688918, “p53as protein and antibody therefor” (Health Research, Inc.).

One data set concerns the target p53as (Mus musculus) (UniProt P02340). The data set is described as follows: cell_activity.
For data set [1], the target named is T1, p53 (UniProt P02340 P02340:1-390). The data set is described as follows: cell_activity.
The target in data set [2] is T1, p53. The data set is described as follows: cell_activity; CAT reporter, mouse (10)1 cells. Particulars: tags: none; pCMVp53r; chain copies: 4. As to the method: Spontaneously arising immortalized murine BALB/c embryo fibroblast (10) 1 is a p53 negative cell line which was transfected with 2 μg pSV-β-gal plasmid (Promegal), 3 μg 50-2 plasmid (Dr. Levine) which contains 2 copies of a 50 bp sequence corresponding to p53 binding site in muscle creatinine kinase promoter-enhancer upstream of a basic CAT reporter plasmid, and 5 μg pCMVp53as, pCMVp53r or pCMV vector control. Transfection was done using the calcium phosphate method. The cells were harvested 48 hors post transfection and lysed by three freeze-thaw cycles. The supernatant was assayed for CAT activity using diffusion.

[3] abbreviates: CAT reporter, human Saos-2 cells.
[4] abbreviates: luciferase reporter, mouse (10)1 cells.

T1 sequence (P02340 whole entry, one chain of several): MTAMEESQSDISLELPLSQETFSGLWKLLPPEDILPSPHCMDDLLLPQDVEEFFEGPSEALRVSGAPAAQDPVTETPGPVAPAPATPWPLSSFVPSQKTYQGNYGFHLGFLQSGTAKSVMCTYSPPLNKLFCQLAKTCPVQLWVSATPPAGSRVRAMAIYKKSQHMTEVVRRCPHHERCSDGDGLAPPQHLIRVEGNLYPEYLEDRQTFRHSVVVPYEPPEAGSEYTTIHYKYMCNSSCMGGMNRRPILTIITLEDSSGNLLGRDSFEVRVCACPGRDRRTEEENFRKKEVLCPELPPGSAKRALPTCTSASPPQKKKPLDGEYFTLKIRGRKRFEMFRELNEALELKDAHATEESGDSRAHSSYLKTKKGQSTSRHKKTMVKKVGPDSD
Sequence of p53as (Mus musculus) (P02340 1-364): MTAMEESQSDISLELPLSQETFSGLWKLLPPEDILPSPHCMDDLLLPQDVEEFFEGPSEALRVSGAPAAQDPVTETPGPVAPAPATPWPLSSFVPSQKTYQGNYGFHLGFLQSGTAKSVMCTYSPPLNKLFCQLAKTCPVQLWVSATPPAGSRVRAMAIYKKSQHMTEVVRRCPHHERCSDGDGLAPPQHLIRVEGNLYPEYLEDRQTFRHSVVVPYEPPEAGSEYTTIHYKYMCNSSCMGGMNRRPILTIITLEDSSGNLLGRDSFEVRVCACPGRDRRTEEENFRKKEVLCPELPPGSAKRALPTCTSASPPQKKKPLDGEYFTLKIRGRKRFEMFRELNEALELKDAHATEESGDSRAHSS

In the case of PG13 (13 repeats of p53 binding site), the activity (fold activation) in the data set with p53as (Mus musculus) (setting [3]) was 9; with p53 [1] (setting [3]), 14. For WAF-1 promoter (WWP-1 luciferase), the activity (fold activation) turned out to be 14 with p53as (Mus musculus) (setting [4]) and 15 with p53 [1] (setting [4]).

B1: muscle creatine kinase promoter-enhancer p53 site (50-2 reporter, 2 copies of 50 bp) (dsDNA)
DNA 1: TGGCAAGCCTATGACATGGCCGGGGCCTGCCTCTCTCTGCCTCTGACCCT
DNA 2: AGGGTCAGAGGCAGAGAGAGGCAGGCCCCGGCCATGTCATAGGCTTGCCA
As for B1, in the data set with p53 [2], the activity was determined as 27 fold activation.
